Experimental data from article PMC7983153 (The Biochemical journal, 2018).

Experiments:
[1] = biological target: MtTSPS-R37E mutant (Medicago truncatula); experiment: SEC
[2] = biological target: MtTSPS (Medicago truncatula, UniProt G7K2D1); experiment: X-ray crystallography, […] Å; details: co-crystallization, 10-molar excess of ligand, pH 6.5; polyamine-binding groove
[3] = biological target: thermospermine synthase from Medicago truncatula (MtTSPS) (Medicago truncatula); experiment: crystal structure
[4] = biological target: thermospermine synthase from Medicago truncatula (MtTSPS) (Medicago truncatula); experiment: SAXS

Compound MtTSPS-R37E mutant (enzyme) has a stoichiometry N [1] of 2.

For `NCCCCNCCCNCCCN` [TSPM, thermospermine], the “X-ray crystallography, 1.65 Å” value [2] was “TSPM in the MtTSPS-TSPM complex is bound with aminopropyl group pointing outside the pocket”.

Work on “thermospermine synthase from Medicago truncatula (MtTSPS) (enzyme)” yielded a stoichiometry N [3] of 4 and a stoichiometry N [4] of 4.
